{"source": "paper PMC9678781", "about": "(The Journal of Biological Chemistry, 2022)", "binders": {"B1": {"name": "B9-scFv displayed on the 293T cell surface (pBovShow) (scFv)", "VH": "QVQLRESGPSLVKPSQTLSLTCTASGFSLSDKAVGWVRQAPGKALEWLGGIDTGGSTGYNPGLKSRLSITKDNSKSQISLSVSSVTTEDSATYYCTTVHQRDSCPYDSSHSQYCSYGWSCGVYNCRPAVWYRYGSCGTCDNLFSYVDAWGQGLLVTVSS", "VL": "QAVLNQPSSVSGSLGQRVSITCSGSSSNVGNGYVSWYQLIPGSAPRTLIYGDTSRASGVPDRFSGSRSGNTATLTISSLQAEDEADYFCASAEDSSSNAVFGSRTTLTVL"}}, "key": {"[1]": {"molecular_target": "SARS-CoV-2 Spike S1 subdomain (aa 2-682), 8xHis-tagged (SARS-CoV-2 Wuhan-Hu-1, UniProt P0DTC2)", "assay": "flow cytometry on cells", "settings": "one partner purified"}, "[2]": {"molecular_target": "SARS-CoV-2 Spike S2 subdomain (aa 686-1211), 8xHis-tagged (SARS-CoV-2 Wuhan-Hu-1, UniProt P0DTC2)", "assay": "flow cytometry on cells", "settings": "one partner purified"}}, "data": [{"binder": "B1", "values": [{"measurement": "binding result", "setting": "[1]", "value": "binds"}, {"measurement": "binding result", "setting": "[2]", "value": "no binding (tested: 2 μM)"}]}]}
